Reference: patent publication US20230220115A1
Where “and” joins values, the source holds several entries; their conditions need not be identical. Identical values can stand only once.

What was measured:
[1] = target: SARS-CoV-2 spike, N439K variant (pseudovirus RVP-703) (SARS-CoV-2) (UniProt P0DTC2); experiment: cell-based or functional assay
[2] = target: SARS-CoV-2 spike, South African Δ3 B.1.351 variant (pseudovirus RVP-724) (SARS-CoV-2) (UniProt P0DTC2); experiment: cell-based or functional assay

“Imdevimab (biosimilar version) (antibody)” was tested, and the EC50 (pM) Neutralization, N439K [1] was 2260 pM and 2220 pM, the potency in pseudovirus neutralization against REGN10933 [1] was 1000 fold and the EC50 (pM) Neutralization, South Africa B.1.351 [2] was 2.48 pM and 2.37 pM.
